Results taken from PMC7518326 (2020).

Biological target: T1, BBI (Bcl9 peptide) 351-357 (Homo sapiens, UniProt O00512)
T1 chain: LSQEQLE

B1: β-catenin (protein)
chain: ATQADLMELDMAMEPDRKAAVSHWQQQSYLDSGIHSGATTTAPSLSGKGNPEEEDVDTSQVLYEWEQGFSQSFTQEQVADIDGQYAMTRAQRVRAAMFPETLDEGMQIPSTQFDAAHPTNVQRLAEPSQMLKHAVVNLINYQDDAELATRAIPELTKLLNDEDQVVVNKAAVMVHQLSKKEASRHAIMRSPQMVSAIVRTMQNTNDVETARCTAGTLHNLSHHREGLLAIFKSGGIPALVKMLGSPVDSVLFYAITTLHNLLLHQEGAKMAVRLAGGLQKMVALLNKTNVKFLAITTDCLQILAYGNQESKLIILASGGPQALVNIMRTYTYEKLLWTTSRVLKVLSVCSSNKPAIVEAGGMQALGLHLTDPSQRLVQNCLWTLRNLSDAATKQEGMEGLLGTLVQLLGSDDINVVTCAAGILSNLTCNNYKNKMMVCQVGGIEALVRTVLRAGDREDITEPAICALRHLTSRHQEAEMAQNAVRLHYGLPVVVKLLHPPSHWPLIKATVGLIRNLALCPANHAPLREQGAIPRLVQLLVRAHQDTQRRTSMGGTQQQFVEGVRMEEIVEGCTGALHILARDVHNRIVIRGLNTIPLFVQLLYSPIENIQRVAAGVLCELAQDKEAAEAIEAEGATAPLTELLHSRNEGVATYAAAVLFRMSEDKPQDYKKRLSVELTSSLFRTEPMAWNETADLGLDIGAQGEPLGYRQDDPSYRSFHSGGYGQDALGMDPMMEHEMGGHHPGADYPVDGLPDLGHAQDLMDGLPPGDSNQLAWFDTDL
- Kd: ~1 µM
